The source of these data is PMC5150220, “Multivalent contacts of the Hsp70 Ssb contribute to its architecture on ribosomes and nascent chain interaction” (Nature Communications, 2016).

Ends that are not written are not given here.

The chains are these.
B1: APPY peptide (biotinylated) (peptide)
peptide: SALLQSRLLLSAPRRAAATARYC
modifications: also: biotinylated, position not given here
notes: canonic Hsp70 substrate peptide APPY
B2: Ssb1 (wild type, recombinant) (natural protein)
chain: not shown
notes: Hsp70 Ssb1 of Saccharomyces cerevisiae, wild type, expressed as His6-Smt3-Ssb1 and cleaved with Ulp1; The nucleotide state was set by pre-treatment with ATP (SsbATP) or apyrase (SsbADP) in one experiment; also called wt Ssb1; full length Ssb1; source: E. coli BL21(DE3)*/pRARE, purified (Ni-IDA, Ulp1 cleavage, Resource Q anion exchange); not shown: His6, N-terminal, cleaved; Smt3, N-terminal, …
B3: IAANS-labelled peptide σ32-Q132-Q144-C (peptide)
peptide: QRKLFFNLRKTKQC
modifications: also: IAANS label, position not given here
notes: sigma-32 (heat shock sigma factor RpoH), residues Q132-Q144; The unlabelled peptide was used in 100-fold excess as the chase in the release assay; also called model peptide

What all share (conditions): both partners purified
Test [1] concerns the target T1, Ssb1Δ601–13 (recombinant) (S. cerevisiae, UniProt P11484 1-600).
T1 construct: Purified as the wild type ('His6-Smt3-Ssb1 construct (or mutations thereof)'); also called mutant Ssb1; source: E. coli BL21(DE3)*/pRARE, purified (Ni-IDA, Ulp1 cleavage, Resource Q anion exchange); not shown: His6, N-terminal, cleaved; Smt3, N-terminal, cleaved
The test is described as follows: SEC; 2 uM biotinylated peptide incubated 30 min at RT with 4 uM purified Ssb1 in Ssb buffer (30 mM HEPES KOH pH 7.4, 50 mM KAc, 5 mM MgCl2, 1 mM beta-mercaptoethanol), then apyrase for 1 h; Superose 12; fractions dot-blotted, peptide detected with StrepTactin-HRP and Ssb with antibody. On the technique in general: In gel filtration, larger molecules generally elute earlier.

The target in test [2] is B2. The description is as above.
Test [3] concerns the target B1. The test is described as follows: SEC; as a1, but Ssb pre-incubated with apyrase (SsbADP) before the peptide was added, compared with Ssb pre-incubated with ATP (SsbATP) and treated with apyrase after the peptide; shifted APPY signals quantified.
In test [4] the target is T1, Ssb1Δ601–13 (recombinant). The test is described as follows: fluorescence polarisation; fluorescence anisotropy; Ssb1 wt or mutant (10 uM in the methods; titrated up to 100 uM in the text) with 1 uM IAANS-labelled peptide in HKM buffer (25 mM HEPES, 150 mM KCl, 5 mM MgCl2, 1 mM DTT, 10% glycerol), 1.5 h at 30 °C.
Test [5] deals with B2. Described as above.

T1 sequence (P11484 1-600, stated change not applied): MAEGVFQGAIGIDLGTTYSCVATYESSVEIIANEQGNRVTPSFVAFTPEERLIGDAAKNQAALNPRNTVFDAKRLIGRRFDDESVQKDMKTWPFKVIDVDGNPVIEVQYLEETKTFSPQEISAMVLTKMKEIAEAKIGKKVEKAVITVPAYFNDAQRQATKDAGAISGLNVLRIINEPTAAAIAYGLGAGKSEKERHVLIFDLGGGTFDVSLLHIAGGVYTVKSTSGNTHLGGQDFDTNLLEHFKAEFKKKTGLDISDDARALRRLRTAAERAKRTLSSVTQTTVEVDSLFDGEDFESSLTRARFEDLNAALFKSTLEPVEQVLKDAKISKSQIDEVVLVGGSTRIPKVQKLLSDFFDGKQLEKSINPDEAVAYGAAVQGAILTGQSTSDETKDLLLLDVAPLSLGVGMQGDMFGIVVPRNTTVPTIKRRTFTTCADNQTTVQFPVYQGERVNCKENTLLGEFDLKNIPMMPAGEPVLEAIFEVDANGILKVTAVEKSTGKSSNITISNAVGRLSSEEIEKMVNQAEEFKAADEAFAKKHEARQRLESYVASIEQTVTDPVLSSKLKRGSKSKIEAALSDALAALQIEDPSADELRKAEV

Regarding B1, the binding result in test [1] and in test [2] was “binds” throughout. Take B2: in test [3], the “shifted APPY signal of SsbADP relative to SsbATP” value came to 71%.

Regarding B3, the binding result in test [4] and in test [5] was “binds” throughout.
